For one substance, activity (% eGFP-negative cells) results are on record in patent publication US20190032049.

Data set [1] has as its system tetR:DNMT3A (tetR:D3A) (Escherichia coli). The data set is described as follows: cell_activity. Conditions: no doxycycline, stable expression, slower kinetics.
Data set [2] relates to tetR:KRAB (tetR:K) (Escherichia coli). In words: cell_activity. Conditions: no doxycycline, stable expression, AAVS1/TetO7 K562.

Consider TetO7 (seven tandem TetO repeats), for which the activity (% eGFP-negative cells) in data set [1] and in data set [2] was 100 throughout.
